Measurements taken from EP2970447B1 (Eli Lilly and Company, dated 2018).

How the values were obtained:
Assay in all cases: SPR (Biacore 2000), antibody captured on Protein A, chemokine in solution, 25°C
human ENA-78 (CXCL5) = biological target: T1, human ENA-78 (CXCL5) (human, UniProt P42830 41-114)
T1 construct: also called human CXCL5 (ENA-78)
T1 sequence: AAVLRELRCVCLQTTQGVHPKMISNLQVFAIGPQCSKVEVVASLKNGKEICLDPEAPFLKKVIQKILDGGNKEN

human Gro-gamma (CXCL3) = biological target: T2, human Gro-gamma (CXCL3) (human, UniProt P19876 35-107)
T2 construct: also called human CXCL3 (Gro gamma)
T2 sequence: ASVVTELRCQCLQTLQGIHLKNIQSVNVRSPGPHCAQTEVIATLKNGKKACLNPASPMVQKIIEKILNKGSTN

human Gro-alpha (CXCL1) = biological target: T3, human Gro-alpha (CXCL1) (human, UniProt P09341 35-107)
T3 construct: also called human CXCL1(Gro alpha)
T3 sequence: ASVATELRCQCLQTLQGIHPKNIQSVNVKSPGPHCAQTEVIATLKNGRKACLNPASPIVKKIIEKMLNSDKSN

human NAP-2 (CXCL7) = biological target: T4, human NAP-2 (CXCL7) (human, UniProt P02775 59-128)
T4 construct: also called human CXCL7 (NAP-2)
T4 sequence: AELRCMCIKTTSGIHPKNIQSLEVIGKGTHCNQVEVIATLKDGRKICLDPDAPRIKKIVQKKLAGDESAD

human IL-8 (CXCL8) = biological target: T5, human IL-8 (CXCL8) (human, UniProt P10145 28-99)
T5 construct: also called human CXCL8 (IL-8); wild type human CXCL8
T5 sequence: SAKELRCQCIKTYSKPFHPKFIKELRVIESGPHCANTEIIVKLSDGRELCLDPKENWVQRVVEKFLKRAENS

human GCP-2 (CXCL6) = biological target: T6, human GCP-2 (CXCL6) (human, UniProt P80162 40-114)
T6 construct: also called human CXCL6 (GCP-2)
T6 sequence: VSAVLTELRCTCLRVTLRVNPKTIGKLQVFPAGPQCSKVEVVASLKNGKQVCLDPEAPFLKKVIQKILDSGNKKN

B1: Antibody 2 (antibody, human IgG4 S228P, kappa, V domains shown)
VH: QVQLVQSGAEVKKPGASVKVSCKASGYEFTSYWIHWVRQAPGQGLEWMGNISPNSGSANYNEKFKSRVTMTRDTSTSTVYMELSSLRSEDTAVYYCAREGPYSYYPSRQYYGSDLWGQGTLVTVSS
VL: EIVLTQSPATLSLSPGERATLSCRASQSISNNLHWYQQKPGQAPRLLIYYTSRSVSGIPARFSGSGSGTDFTLTISSLEPEDFAVYYCGQNNEWPEVFGGGTKVEIKR
notes: Full-length antibody expressed in NS0 cells
Human ENA-78 (CXCL5)
  koff: 1.51e-05 s⁻¹
Human Gro-gamma (CXCL3)
  koff: 1.76e-05 s⁻¹
Human Gro-alpha (CXCL1)
  koff: 1.53e-05 s⁻¹
Human NAP-2 (CXCL7)
  koff: 2.18e-05 s⁻¹
Human IL-8 (CXCL8)
  koff: 1.24e-05 s⁻¹
Human GCP-2 (CXCL6)
  koff: 6.11e-05 s⁻¹
